From PMC8688357 (Frontiers in Microbiology, 2021)

Molecular target: T1, recombinant biotin peptide-6 x His-tagged SARS-CoV-2 N protein (SARS-CoV-2 N-Bio-His6), biotinylated (SARS-CoV-2, UniProt P0DTC9 1-419)
T1 construct: also called recombinant SARS-CoV-2 N fusion protein
Assay: ELISA
Settings: both partners purified

B1: SARS-CoV-2 Spike CD-Fc (fusion protein containing the SARS-CoV-2 Spike C-terminal domain and the human IgG1 Fc domain) (Fc fusion)
chain: LCCMTSCCSCLKGCCSCGSCCKFDEDDSEPVLKGVKLHYT
notes: also called recombinant SARS-CoV-2 Spike CD fusion protein
Q: Does B1 bind?
A: Result: binds
